What was measured:
[1] = target: T1, pp65-loaded RMA-S-HHD cells (UniProt P06725+P61769); test: Flow cytometry on peptide-loaded RMA-S-HHD cells; format: cell-based, murine; conditions: Fab, control: EBV derived peptide
T1 construct: expressed in transfected cells; host or cells: murine TAP2-deficient RMA-S cells (RMA-S-HHD)
Experimental: Flow cytometry—The B cell line RMAS-HHD, which is transfected with a single-chain β2m-HLA-A2 gene, the EBV-transformed HLA-A2^+ JY cells, and the HLA-A2− B cell line APD-70 were used to determine the reactivity of the recombinant Fab Abs with cell surface-expressed HLA-A2/peptide complexes. Peptide pulsing was performed as indicated: 10^6 cells were washed twice with serum-free RPMI and incubated overnight at 26° C. or 37° C., respectively, in medium containing 1-50 μM of the peptide. The RMAS-HHD cells were subsequently incubated at 37° C. for 2-3 hours to stabilize cell surface expression of MHC-peptide complexes.
Cells were incubated for 60 minutes at 4° C. with recombinant Fab Abs (10 μg/ml) in 100 μl PBS. After one wash, the cells were incubated with 1 μg anti-human Fab (Jackson ImmunoResearch) for another 60 minutes at 4° C. After three washes, the cells were resuspended in ice-cold PBS. The cells were analyzed by a FACStar flow cytometer (BD Biosciences, San Jose, Calif.).
The pp65495-503 peptide and control peptides were loaded on RMA-S-HHD cells and the ability of the selected Fab Abs to bind to peptide-loaded cells was monitored by flow cytometry.

[2] = system: HLA-A2/pp65 complex (pp65 495-503 peptide); test: ELISA with phage clones and purified Fab Abs, specific complex; format: binding, human; conditions: soluble purified Fab
Experimental: ELISA with phage clones and purified Fab Abs—The binding specificities of individual phage clones and soluble Fab were determined by ELISA using biotinylated scMHC-peptide complexes. ELISA plates (Falcon) were coated overnight with BSA-biotin (1 μg/well). After having been washed, the plates were incubated (1 hour, RT) with streptavidin (1 μg/well), washed extensively, and further incubated (1 hour, RT) with 0.5 μg of MHC/peptide complexes. The plates were blocked for 30 minutes at RT with PBS/2% skim milk and subsequently were incubated for 1 hour at RT with phage clones (˜10^9 phages/well) or various concentrations of soluble purified Fab. […]
A large human Fab library containing 3.7×10^10 different Fab clones was used for the selection on biotinylatd HLA-A2/pp65 complexes (De Haard H J., et al., 1999). […] Specificity of the selected phage antibodies against the complex was analyzed by a differential ELISA assay in which binding was tested against specific (pp65 495-503 peptide; SEQ ID NO:3) and non specific (gp100 280-288 peptide; SEQ ID NO:4) biotinylated HLA-A2/peptide complexes. […]
To determine the correct folding of the bound complexes and their stability during the binding assays, the ability of the complexes to react with the conformation-specific mAb, w6/32, that recognizes HLA complexes only when folded correctly and when containing peptide was monitored.

B1: F5: human recombinant TCR-like Fab clone specific for HLA-A2/pp65 495-503; heavy chain SEQ ID NO:20, light chain SEQ ID NO:22 (antibody)
heavy: QVQLQESGPGLVKPSETLSLTCTVSGGSISSSNYYWGWIRQPPGKGLEWIGAIYYSGSTYYNPSLKSRVAISVDTSKNQFSLKLSSVTAADTAVYYCARRIGVAGQWYFDLWGRGTLVTVSSASTKGPSVFPLAPSSKSTSGGTAALGCLVKDYFPEPVTVSWNSGALTSGVHTFPAVLQSSGLYSLSSVVTVPSSSLGTQTYICNVNHKPSNTKVDKKVEPKSC
light: LNFMLTQPHSVSGSPGKTVTISCTRSTGSITSNYVHWYQQRPGSSPTTVICEDNERPSGVPDRFSGSIDISSNSASLTISGLKTEDEADYYCQSYDDSNHISVFGTGTKVTVLGQPKANPCLISDFYPGAVTVAWKADGSPVKAGVETTKPSKQSNNKYAASSYLSLTPEQWKSHRSYSCQVTHEGSTVEKTVAPAECS
modifications: F5 Fab heavy chain polypeptide sequence; F5 Fab light chain polypeptide sequence
reactivity with peptide-loaded RMA-S-HHD cells [1]: reacted only with pp65-loaded RMA-S-HHD cells
binding to the specific HLA-A2/pp65 complex [2]: Specificity towards HLA-A2/pp65 complex

Source: patent publication US8361473B2, “Antibodies and their uses for diagnosis and treatment of cytomegalovirus infection and associated diseases” (priority 2007, dated 2013)
